Read-outs that look alike come from different tables or passages of the source.

The text below walks through data of patent publication US20260209291A1 (KAMINO, published 2026).

For experiment [1], the target named is T1, GDF11 (Growth Differentiation Factor 11) (Homo sapiens (Human), UniProt O95390 299-407).
T1 sequence: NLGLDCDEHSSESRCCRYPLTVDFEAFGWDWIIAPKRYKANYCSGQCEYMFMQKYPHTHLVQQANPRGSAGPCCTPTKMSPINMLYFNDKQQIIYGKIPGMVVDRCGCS
Briefly: cell-based or functional assay.

Experiment [2] concerns the target T2, activin A (human, UniProt P08476 311-426).
T2 sequence: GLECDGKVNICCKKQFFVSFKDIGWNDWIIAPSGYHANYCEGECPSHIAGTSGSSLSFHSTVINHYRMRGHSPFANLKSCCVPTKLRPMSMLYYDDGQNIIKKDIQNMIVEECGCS
Nature of the experiment: cell-based or functional assay.

Experiment [3] has as its target T3, myostatin (Homo sapiens (Human), UniProt O14793 267-375).
T3 sequence: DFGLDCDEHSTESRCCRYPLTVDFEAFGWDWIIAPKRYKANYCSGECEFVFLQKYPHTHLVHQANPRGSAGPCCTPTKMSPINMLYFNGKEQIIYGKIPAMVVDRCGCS
Nature of the experiment: cell-based or functional assay.

The target in experiment [4] is VEGF (Vascular Endothelial Growth Factor) (UniProt P15692-4 27-191). Briefly: SPR (Biacore 3000, 25 °C): compound captured to about 1,000 RU on a CM5 chip with the mouse antibody capture kit, VEGF injected for 120 s, 300 s dissociation. The method, then: (§1) Surface plasmon resonance (SPR) experiments were carried out on a Biacore 3000 (Cytiva). A CM5 chip for capture of the compounds was prepared according to the instructions of the mouse antibody capture kit (Cytiva, #BR100838). VGFR(½)-mFc-FSD1, TNFR2-mFc-FSD1, VGFR(½)/FST291-mFc, TNFR2/FST291-mFc, VGFR(½)-hFc (Aflibercept), TNFR2-hFc (Etanercept), and FST315dHBS-mFc (SEQ ID NO: 30, SEQ ID NO: 31) were captured to approximately 1,000 RU (Resonance Units). TNFα (R&D Systems, #210-TA-005,) or VEGF (R&D Systems, #293-VE-010) were then injected for 120 s followed by a 300 s dissociation phase. At the end of each binding cycle, non-covalently attached molecules were removed from both surfaces by a 180 s regeneration with 10 mM glycine, pH 1.7. All proteins were diluted in running buffer ([…], pH 7.5, […], 2 mM CaCl₂) and 0.05% Tween 20). A flow rate of 30 μl/min was used in all steps of the experiments. Binding analysis was performed at 25° C., and data were collected at a rate of 1 Hz. Using the BIAevaluation 4.1.1 software (Cytiva), recorded signals were referenced; the signal from the in-line reference flow cell was subtracted as was the signal from a blank run (0 nM analyte).
VEGF (Vascular Endothelial Growth Factor), sequence (P15692 other isoform, or with tags, fused parts or gaps limits assumed): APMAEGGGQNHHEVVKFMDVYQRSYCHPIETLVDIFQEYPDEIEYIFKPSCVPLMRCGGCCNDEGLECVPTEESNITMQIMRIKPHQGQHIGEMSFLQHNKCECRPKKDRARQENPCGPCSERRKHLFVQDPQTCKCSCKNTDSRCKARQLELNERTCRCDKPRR
For orientation: In SPR one partner is held on a chip, and binding of the other changes the refractive index at the surface.

The target in experiment [5] is TNFα (Tumor Necrosis Factor alpha) (UniProt P01375 77-233). Nature of the experiment: SPR (Biacore 3000, 25 °C): compound captured to about 1,000 RU on a CM5 chip with the mouse antibody capture kit, TNFα injected for 120 s, 300 s dissociation. The method, then: as §1
TNFα (Tumor Necrosis Factor alpha), sequence (P01375 77-233 limits assumed): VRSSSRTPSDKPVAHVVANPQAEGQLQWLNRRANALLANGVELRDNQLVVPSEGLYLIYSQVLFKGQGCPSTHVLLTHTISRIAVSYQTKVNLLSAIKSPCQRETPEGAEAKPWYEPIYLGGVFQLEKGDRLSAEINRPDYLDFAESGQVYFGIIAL
Experiment [6] addresses T1, GDF11 (Growth Differentiation Factor 11). Briefly: cell-based or functional assay. This is another data set of the same source.
The target of experiment [7] is T2, activin A. Nature of the experiment: cell-based or functional assay. This is another data set of the same source.
The target in experiment [8] is T3, myostatin. Nature of the experiment: cell-based or functional assay. This is another data set of the same source.
Experiment [9] addresses T2, activin A. Briefly: cell-based or functional assay. The source holds these as a separate data set.
The target of experiment [10] is T1, GDF11 (Growth Differentiation Factor 11). Nature of the experiment: cell-based or functional assay. The source holds these as a separate data set.
The target of experiment [11] is T3, myostatin. Nature of the experiment: cell-based or functional assay. This is another data set of the same source.
Experiment [12] concerns the target T2, activin A. Nature of the experiment: cell-based or functional assay. This is another data set of the same source.
The target in experiment [13] is T1, GDF11 (Growth Differentiation Factor 11). Nature of the experiment: cell-based or functional assay. This is another data set of the same source.
Experiment [14] has as its target T3, myostatin. Nature of the experiment: cell-based or functional assay. The source holds these as a separate data set.

B1: VGFR(½)/FST291-mFc (Fc fusion)
chain 1: GNCWLRQAKNGRCQVLYKTELSKEECCSTGRLSTSWTEEDVNDNTLFKWMIFNGGAPNCIPCKETCENVDCGPGKKCRMNKKNKPRCVCAPDCSNITWKGPVCGLDGKTYRNECALLKARCKEQPELEVQYQGRCKKTCRDVFCPGSSTCVVDQTNNAYCVTCNRICPEPASSEQYLCGNDGVTYSSACHLRKATCLLGRSIGLAYEGKCIKAKSCEDIQCTGGKKCLWDFKVGRGRCSLCDELCPDSKSDEPVCASDNATYASECAMKEAACSSGVLLEVKHSGSCNSISPRGPTIKPCPPCKCPAPNLLGGPSVFIFPPKIKDVLMISLSPIVTCVVVDVSEDDPDVQISWFVNNVEVHTAQTQTHREDYNSTLRVVSALPIQHQDWMSGKEFKCKVNNKDLPAPIERTISKPKGSVRAPQVYVLPPPEEEMTEKQVTLTCMVTDFMPEDIYVEWTNNGKTELNYKNTEPVLDSDGSYFMYSWLRVEKKNWVERNSYSCSVVHEGLHNHHTTKSFSRTPGK
chain 2: SDTGRPFVEMYSEIPEIIHMTEGRELVIPCRVTSPNITVTLKKFPLDTLIPDGKRIIWDSRKGFIISNATYKEIGLLTCEATVNGHLYKTNYLTHRQTNTIIDVVLSPSHGIELSVGEKLVLNCTARTELNVGIDFNWEYPSSKHQHKKLVNRDLKTQSGSEMKKFLSTLTIDGVTRSDQGLYTCAASSGLMTKKNSTFVRVHEKPRGPTIKPCPPCKCPAPNLLGGPSVFIFPPKIKDVLMISLSPIVTCVVVDVSEDDPDVQISWFVNNVEVHTAQTQTHREDYNSTLRVVSALPIQHQDWMSGKEFKCKVNNKDLPAPIERTISKPKGSVRAPRVYVLPPPEEEMTKKQVTLTCMVTDFMPEDIYVEWTNNGKTELNYKNTEPVLVSDGSYTMYSKLRVEKKNWVERNSYSCSVVHEGLHNHHTTKSFSRTPGKLVPRGSHHHHHH
notes: Fc heterodimer (knobs-in-holes, murine IgG2A); also called VGFR(1/2)/FST291-mFc; type 4 design compound
As for B1, the “IC50, neutralisation of 1 ng/mL GDF11 (pSmad2/3 luciferase reporter, HEK293 cells) [cont. B]” value in [1] came to 3450 pM. Further, the “IC50, neutralisation of 1 ng/mL activin A (pSmad2/3 luciferase reporter, HEK293 cells) [cont. B]” value with activin A [2] worked out at 584 pM. Also, the “IC50, neutralisation of 1 ng/mL myostatin (pSmad2/3 luciferase reporter, HEK293 cells) [cont. B]” value with myostatin [3] was found to be 1640 pM. In addition, the binding result in [4] is reported as “binds”.

B2: TNFR2/FST291-mFc (Fc fusion)
chain 1: B1 chain 1
chain 2: LPAQVAFTPYAPEPGSTCRLREYYDQTAQMCCSKCSPGQHAKVFCTKTSDTVCDSCEDSTYTQLWNWVPECLSCGSRCSSDQVETQACTREQNRICTCRPGWYCALSKQEGCRLCAPLRKCRPGFGVARPGTETSDVVCKPCAPGTFSNTTSSTDICRPHQICNVVAIPGNASMDAVCTSTSPTRSMAPGAVHLPQPVSTRSQHTQPTPEPSTAPSTSFLLPMGPSPPAEGSTGDPRGPTIKPCPPCKCPAPNLLGGPSVFIFPPKIKDVLMISLSPIVTCVVVDVSEDDPDVQISWFVNNVEVHTAQTQTHREDYNSTLRVVSALPIQHQDWMSGKEFKCKVNNKDLPAPIERTISKPKGSVRAPRVYVLPPPEEEMTKKQVTLTCMVTDFMPEDIYVEWTNNGKTELNYKNTEPVLVSDGSYTMYSKLRVEKKNWVERNSYSCSVVHEGLHNHHTTKSFSRTPGKLVPRGSHHHHHH
notes: Fc heterodimer (knobs-in-holes, murine IgG2A); also called type 4 design compound
As for B2, the binding result in experiment [5] is “binds”. Moreover, the “IC50, neutralisation of 1 ng/mL GDF11 (pSmad2/3 luciferase reporter, HEK293 cells) [cont. C]” value in [6] was determined as 4490 pM. In the experiment with activin A [7], the “IC50, neutralisation of 1 ng/mL activin A (pSmad2/3 luciferase reporter, HEK293 cells) [cont. C]” value turned out to be 525 pM. Further, the “IC50, neutralisation of 1 ng/mL myostatin (pSmad2/3 luciferase reporter, HEK293 cells) [cont. C]” value with myostatin [8] amounted to 1610 pM.

B3: VGFR(½)-mFc-FSD1 (Fc fusion)
chain: SDTGRPFVEMYSEIPEIIHMTEGRELVIPCRVTSPNITVTLKKFPLDTLIPDGKRIIWDSRKGFIISNATYKEIGLLTCEATVNGHLYKTNYLTHRQTNTIIDVVLSPSHGIELSVGEKLVLNCTARTELNVGIDFNWEYPSSKHQHKKLVNRDLKTQSGSEMKKFLSTLTIDGVTRSDQGLYTCAASSGLMTKKNSTFVRVHEKPRGPTIKPCPPCKCPAPNLLGGPSVFIFPPKIKDVLMISLSPIVTCVVVDVSEDDPDVQISWFVNNVEVHTAQTQTHREDYNSTLRVVSALPIQHQDWMSGKEFKCKVNNKDLPAPIERTISKPKGSVRAPQVYVLPPPEEEMTKKQVTLTCMVTDFMPEDIYVEWTNNGKTELNYKNTEPVLDSDGSYFMYSKLRVEKKNWVERNSYSCSVVHEGLHNHHTTKSFSRTPGKETCENVDCGPGKKCRMNKKNKPRCVCAPDCSNITWKGPVCGLDGKTYRNECALLKARCKEQPELEVQYQGRCK
notes: expressed in CHO cells; also called VGFR(1/2)-mFc-FSD1; type 2 design compound
Regarding B3, the “IC50, neutralisation of 1 ng/mL activin A (pSmad2/3 luciferase reporter, HEK293 cells)” value with activin A [9] was 18 nM. In experiment [10], the “IC50, neutralisation of 1 ng/mL GDF11 (pSmad2/3 luciferase reporter, HEK293 cells) [cont. C]” value was found to be 21 nM. The “IC50, neutralisation of 1 ng/mL myostatin (pSmad2/3 luciferase reporter, HEK293 cells) [cont. B]” value with myostatin [11] is 37 nM. In [4], the binding result is reported as “binds”.

B4: TNFR2-mFc-FSD1 (Fc fusion)
chain: LPAQVAFTPYAPEPGSTCRLREYYDQTAQMCCSKCSPGQHAKVFCTKTSDTVCDSCEDSTYTQLWNWVPECLSCGSRCSSDQVETQACTREQNRICTCRPGWYCALSKQEGCRLCAPLRKCRPGFGVARPGTETSDVVCKPCAPGTFSNTTSSTDICRPHQICNVVAIPGNASMDAVCTSTSPTRSMAPGAVHLPQPVSTRSQHTQPTPEPSTAPSTSFLLPMGPSPPAEGSTGDPRGPTIKPCPPCKCPAPNLLGGPSVFIFPPKIKDVLMISLSPIVTCVVVDVSEDDPDVQISWFVNNVEVHTAQTQTHREDYNSTLRVVSALPIQHQDWMSGKEFKCKVNNKDLPAPIERTISKPKGSVRAPQVYVLPPPEEEMTKKQVTLTCMVTDFMPEDIYVEWTNNGKTELNYKNTEPVLDSDGSYFMYSKLRVEKKNWVERNSYSCSVVHEGLHNHHTTKSFSRTPGKETCENVDCGPGKKCRMNKKNKPRCVCAPDCSNITWKGPVCGLDGKTYRNECALLKARCKEQPELEVQYQGRCK
notes: expressed in CHO cells; also called type 2 design compound
On to B4, for which, in [5], the binding result is “binds”.

B5: native full-length follistatin315 (FST315) (other)
chain: GNCWLRQAKNGRCQVLYKTELSKEECCSTGRLSTSWTEEDVNDNTLFKWMIFNGGAPNCIPCKETCENVDCGPGKKCRMNKKNKPRCVCAPDCSNITWKGPVCGLDGKTYRNECALLKARCKEQPELEVQYQGRCKKTCRDVFCPGSSTCVVDQTNNAYCVTCNRICPEPASSEQYLCGNDGVTYSSACHLRKATCLLGRSIGLAYEGKCIKAKSCEDIQCTGGKKCLWDFKVGRGRCSLCDELCPDSKSDEPVCASDNATYASECAMKEAACSSGVLLEVKHSGSCNSISEDTEEEEEDEDQDYSFPISSILEW
For B5, the “IC50, neutralisation of 1 ng/mL activin A (pSmad2/3 luciferase reporter, HEK293 cells)” value with activin A [12] is 53 pM. The “IC50, neutralisation of 1 ng/mL GDF11 (pSmad2/3 luciferase reporter, HEK293 cells)” value in experiment [13] worked out at 119 pM. Moreover, the “IC50, neutralisation of 1 ng/mL myostatin (pSmad2/3 luciferase reporter, HEK293 cells)” value in the experiment with myostatin [14] is 210 pM.
